The values that follow come from article PMC11799434 (2025).

The target of this assay is MT-100. Nature of the assay: BLI.

B1: extracellular domain of human Tie2 fused with Fc (hTie2-ECD-Fc) (Fc fusion)
chain: AMDLILINSLPLVSDAETSLTCIASGWRPHEPITIGRDFEALMNQHQDPLEVTQDVTREWAKKVVWKREKASKINGAYFCEGRVRGEAIRIRTMKMRQQASFLPATLTMTVDKGDNVNISFKKVLIKEEDAVIYKNGSFIHSVPRHEVPDILEVHLPHAQPQDAGVYSARYIGGNLFTSAFTRLIVRRCEAQKWGPECNHLCTACMNNGVCHEDTGECICPPGFMGRTCEKACELHTFGRTCKERCSGQEGCKSYVFCLPDPYGCSCATGWKGLQCNEACHPGFYGPDCKLRCSCNNGEMCDRFQGCLCSPGWQGLQCEREGIQRMTPKIVDLPDHIEVNSGKFNPICKASGWPLPTNEEMTLVKPDGTVLHPKDFNHTDHFSVAIFTIHRILPPDSGVWVCSVNTVAGMVEKPFNISVKVLPKPLNAPNVIDTGHNFAVINISSEPYFGDGPIKSKKLLYKPVNHYEAWQHIQVTNEIVTLNYLEPRTEYELCVQLVRRGEGGEGHPGPVRRFTTASIGLPPPRGLNLLPKSQTTLNLTWQPIFPSSEDDFYVEVERRSVQKSDQQNIKVPGNLTSVLLNNLHPREQYVVRARVNTKAQGEWSEDLTAWTLSDILPPQPENIKISNITHSSAVISWTILDGYSISSITIRYKVQGKNEDQHVDVKIKNATITQYQLKGLEPETAYQVDIFAENNIGSSNPAFSHELVTLPESQAPADLGGGKMLL
As for B1, the affinity, expressed as Kd, was 2.5 nM and the koff was 0.0011 s⁻¹.
